Results from article PMC10013841.

Assays:
[1] = target: baculovirus-produced trimeric Spike (SARS-CoV-2) (UniProt P0DTC2); assay: ITC
[2] = target: SARS-CoV-2 Spike glycoprotein (Omicron), trimeric, HEK293-produced (SARS-CoV-2) (UniProt P0DTC2); assay: ITC
[3] = target: SARS-CoV-2 Spike glycoprotein (WH-1), trimeric, HEK293-produced (S1+S2) (SARS-CoV-2) (UniProt P0DTC2); assay: ITC
[4] = target: SARS-CoV-2 Spike glycoprotein (WH-1), trimeric, HEK293-produced (S1+S2) (SARS-CoV-2) (UniProt P0DTC2); assay: ELISA

Sequence of cyanovirin-N (P81180 whole entry): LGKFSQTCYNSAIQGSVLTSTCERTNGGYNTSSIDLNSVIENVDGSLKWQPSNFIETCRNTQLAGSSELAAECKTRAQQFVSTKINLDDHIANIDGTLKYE

## cyanovirin-N (from UniProt P81180 1-101) (natural protein)
[1]
  Kd: 13.4 nM
  stoichiometry N (CV-N per Spike monomer): 2.4
[2]
  Kd: 15.4 nM
  stoichiometry N (CV-N per Spike monomer): 2
[3]
  Kd: 28.1 nM
  stoichiometry N (CV-N per Spike monomer): 2
[4]
  EC50: 2.9 nM
